# Source: US20230151109A1 (UCB, published 2023)
# B1: anti-CD9 Fab-Y antibody 7272 (Fab, V domains shown)
# VH: QSLEESGGRLVTPGTPLTLTCTVSGFSLSSYAMGWVRQAPGKGLEWIGAIGSITATGYARWAKGRFSISKTSTTVDLKMTSPTTEDTATYFCAREIYVGSAYAFDIWGPGTLVTVSS
# VL: AYDMTQTPASVEVAVGDTVTIKCQASQSISNYLAWYQQKPGQPPKLLIYLASTLASGVPSRFKGSGSGTEFTLTISDLECADAATYYCQQGYIDNVNKGFGGGTEVVVK
# notes: Tested as Fab-Y: Fab fragment joined through a peptide linker at CH1 to the GCN4 peptide (clone 7P14P); also called VR7272
# Experiments:
# [1] = biological target: T1, full-length CD9 expressed on cells (human, UniProt P21926 2-228); experiment: selection by binding to cells expressing full-length CD9; method not described
# T1 construct: also called human CD9
# T1 sequence: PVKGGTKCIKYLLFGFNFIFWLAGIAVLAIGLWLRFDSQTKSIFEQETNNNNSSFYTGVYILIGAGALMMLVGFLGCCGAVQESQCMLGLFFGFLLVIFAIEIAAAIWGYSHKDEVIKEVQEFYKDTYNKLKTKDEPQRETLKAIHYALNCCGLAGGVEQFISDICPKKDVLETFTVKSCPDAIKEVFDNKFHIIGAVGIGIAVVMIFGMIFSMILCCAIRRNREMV
# [2] = biological target: T2, recombinant human CD9 long extracellular loop 2-human Fc fusion protein (10015-CD, R&D Systems) (human, UniProt P21926 112-195); experiment: biolayer interferometry (Octet RED384), CD9 loop 2-Fc on AHC biosensors, Fab-Y 10 ug/mL
# T2 construct: Bought protein; The parts are ordered as in the printed name; also called CD9-loop2; long extracellular loop 2 peptide; not shown: human Fc of the bought fusion protein
# T2 sequence: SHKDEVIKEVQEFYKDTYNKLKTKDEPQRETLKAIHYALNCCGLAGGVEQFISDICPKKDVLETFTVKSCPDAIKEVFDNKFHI
# Protocol: Seven different CD9 antibodies each providing unique functional activity with CD137, CD7 and HVEM antibodies in a bispecific combination were analysed for their ability to bind the long extracellular loop 2 of CD9. CD9 contains two extracellular loops: a short extracellular loop (loop 1: 34-55 in SEQ ID NO:1) and a long extracellular loop (loop 2: 112-195 in SEQ ID NO:1). We used biolayer interferometry to assess binding of our panel of CD9 Fab-Y antibodies (selected for ability to bind full-length CD9 expressed on cells) to the long extracellular loop 2 peptide, using the Octet® RED384 System (FortéBio) with anti-hIgG Fc Capture (AHC) Biosensors (FortéBio) at room temperature. Firstly, an array of 8 sensors was dipped in kinetics buffer (PBS 0.1%, BSA 0.02%, Tween 20) for 120 seconds to provide a baseline signal. Sensors were then moved to wells containing 200 μl of recombinant human CD9 long extracellular loop 2-human Fc fusion protein (10015-CD, R&D Systems®) at 2 μg/mL in kinetics buffer to immobilize the protein to the biosensor (100 seconds), followed by a second baseline step (180 seconds) in kinetics buffer to equilibrate the biosensors now coated with the CD9 long extracellular loop 2-human Fc fusion protein. No detachment of the peptide was observed during this step. […]
binder,measurement,setting,value
B1,binding result,[1],binds
same,binding result,[2],binds
